This is an account of results in patent US20220332804A1 (CSL INNOVATION, published 2022).

What all share (experiment): SPR, KD relative to WT C2;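 note: biacore SPR at 37 °C, anti-C2 mAbs captured on anti-human IgG chips with alanine or serine point mutants of C2 as analyte, KD from 1:1 fit compared with wild-type C2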
In general terms: Surface plasmon resonance follows binding to a sensor surface in real time, without labels.

For test [1], the target named is T1, human C2 N380A (human, UniProt P06681 21-752).
T1 sequence: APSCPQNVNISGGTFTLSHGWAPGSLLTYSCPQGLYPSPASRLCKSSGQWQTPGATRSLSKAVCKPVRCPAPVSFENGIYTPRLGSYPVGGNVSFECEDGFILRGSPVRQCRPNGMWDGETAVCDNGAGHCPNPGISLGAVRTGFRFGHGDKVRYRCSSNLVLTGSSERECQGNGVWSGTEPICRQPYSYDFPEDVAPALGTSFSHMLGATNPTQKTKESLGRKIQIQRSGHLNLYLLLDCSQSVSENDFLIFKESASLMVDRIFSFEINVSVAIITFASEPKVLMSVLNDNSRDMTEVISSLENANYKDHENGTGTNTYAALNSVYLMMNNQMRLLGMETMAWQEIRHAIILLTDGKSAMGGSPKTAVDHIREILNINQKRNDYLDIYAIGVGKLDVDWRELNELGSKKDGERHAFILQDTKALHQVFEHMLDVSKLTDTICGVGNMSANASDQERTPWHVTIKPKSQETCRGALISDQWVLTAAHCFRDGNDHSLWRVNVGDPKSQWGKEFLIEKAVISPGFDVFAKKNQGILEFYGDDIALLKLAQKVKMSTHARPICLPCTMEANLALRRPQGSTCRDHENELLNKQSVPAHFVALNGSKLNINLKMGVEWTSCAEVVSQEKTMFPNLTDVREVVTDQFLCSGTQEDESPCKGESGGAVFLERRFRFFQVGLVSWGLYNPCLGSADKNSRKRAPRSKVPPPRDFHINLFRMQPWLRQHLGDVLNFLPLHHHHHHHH

For test [2], the target named is T2, human C2 G427A (human, UniProt P06681 21-752).
T2 sequence: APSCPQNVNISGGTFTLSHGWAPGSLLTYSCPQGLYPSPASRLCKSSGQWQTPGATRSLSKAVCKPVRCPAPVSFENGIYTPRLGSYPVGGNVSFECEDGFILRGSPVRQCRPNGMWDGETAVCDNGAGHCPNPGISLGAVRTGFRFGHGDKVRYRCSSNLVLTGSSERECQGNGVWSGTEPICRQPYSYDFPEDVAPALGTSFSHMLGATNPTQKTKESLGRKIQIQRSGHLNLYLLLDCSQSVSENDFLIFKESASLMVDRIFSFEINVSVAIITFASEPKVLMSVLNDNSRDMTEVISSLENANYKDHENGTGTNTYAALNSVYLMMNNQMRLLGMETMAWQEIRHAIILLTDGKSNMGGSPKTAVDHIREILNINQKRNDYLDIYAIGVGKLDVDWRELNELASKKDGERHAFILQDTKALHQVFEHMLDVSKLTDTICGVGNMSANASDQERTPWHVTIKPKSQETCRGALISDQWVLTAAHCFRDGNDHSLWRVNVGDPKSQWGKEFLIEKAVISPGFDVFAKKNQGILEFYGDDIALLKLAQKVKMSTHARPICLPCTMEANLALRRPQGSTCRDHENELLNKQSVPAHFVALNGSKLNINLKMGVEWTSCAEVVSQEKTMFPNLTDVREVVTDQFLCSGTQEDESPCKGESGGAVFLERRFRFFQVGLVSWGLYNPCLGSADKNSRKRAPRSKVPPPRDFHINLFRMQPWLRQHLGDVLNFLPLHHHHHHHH

Test [3] deals with T3, human C2 H446A (human, UniProt P06681 21-752).
T3 sequence: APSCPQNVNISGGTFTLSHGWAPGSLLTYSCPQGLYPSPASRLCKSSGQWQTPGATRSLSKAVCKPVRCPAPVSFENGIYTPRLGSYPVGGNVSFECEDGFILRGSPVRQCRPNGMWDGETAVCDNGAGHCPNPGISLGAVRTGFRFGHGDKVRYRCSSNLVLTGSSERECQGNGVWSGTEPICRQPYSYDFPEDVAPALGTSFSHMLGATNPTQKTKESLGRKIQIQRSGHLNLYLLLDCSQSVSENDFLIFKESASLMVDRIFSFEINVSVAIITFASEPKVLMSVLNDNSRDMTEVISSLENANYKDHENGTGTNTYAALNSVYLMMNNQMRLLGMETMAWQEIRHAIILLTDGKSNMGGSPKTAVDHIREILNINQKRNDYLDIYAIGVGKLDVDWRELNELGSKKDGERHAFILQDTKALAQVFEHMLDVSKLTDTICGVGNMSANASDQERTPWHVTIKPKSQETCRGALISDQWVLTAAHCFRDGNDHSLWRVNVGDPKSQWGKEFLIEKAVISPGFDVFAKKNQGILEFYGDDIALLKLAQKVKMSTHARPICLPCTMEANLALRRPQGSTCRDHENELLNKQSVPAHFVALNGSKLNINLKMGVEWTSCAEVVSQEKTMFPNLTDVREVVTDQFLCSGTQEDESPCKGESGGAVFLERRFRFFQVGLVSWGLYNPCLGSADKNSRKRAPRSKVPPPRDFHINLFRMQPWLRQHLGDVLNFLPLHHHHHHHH

Test [4] has as its target T4, human C2 V455A (human, UniProt P06681 21-752).
T4 sequence: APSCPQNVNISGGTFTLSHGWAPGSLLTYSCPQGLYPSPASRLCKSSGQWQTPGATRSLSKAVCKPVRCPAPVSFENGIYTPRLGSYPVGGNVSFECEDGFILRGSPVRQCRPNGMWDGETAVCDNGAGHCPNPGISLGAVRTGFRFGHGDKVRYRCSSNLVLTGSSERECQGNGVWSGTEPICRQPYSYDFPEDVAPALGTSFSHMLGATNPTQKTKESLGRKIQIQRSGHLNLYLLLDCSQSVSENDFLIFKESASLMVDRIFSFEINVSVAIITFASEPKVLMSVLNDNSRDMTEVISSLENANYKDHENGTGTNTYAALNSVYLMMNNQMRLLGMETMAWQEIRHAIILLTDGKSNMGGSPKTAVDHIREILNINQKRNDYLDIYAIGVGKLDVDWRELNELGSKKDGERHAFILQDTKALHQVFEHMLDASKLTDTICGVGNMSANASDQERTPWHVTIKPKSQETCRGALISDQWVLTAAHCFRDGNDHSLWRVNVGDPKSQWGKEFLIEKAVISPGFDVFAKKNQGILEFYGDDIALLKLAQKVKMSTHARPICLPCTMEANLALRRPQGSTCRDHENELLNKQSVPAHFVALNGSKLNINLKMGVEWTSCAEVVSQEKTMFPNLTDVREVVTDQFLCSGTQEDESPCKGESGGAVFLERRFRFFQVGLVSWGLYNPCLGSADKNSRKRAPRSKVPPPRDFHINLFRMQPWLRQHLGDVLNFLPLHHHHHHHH

B1: RF16-242 (antibody, human IgG4 S228P, lambda, V domains shown)
VH: EVQLLQSGAEVKKPGESLKISCKGSGYSFTSYWIGWVRQMPGKGLEWMGIIYPGDSDTRYSPSFQGQVTISADKSISTAYLQWSSLKASDTAMYYCARRGHYGDYFDYWGQGTLVTVSS
VL: SYELTQPPSVSVSPGQTARITCSGDALPKKYAYWYHQKSGQAPVLVIYEDRRRPSEIPERFSGSSSGTMATLTITGAQVEDEGVYFCYSRDRAGNQRVFGGGTQLTVLG
notes: pH-dependent anti-C2 antibody from a phage display library
Take B1: the Fold diff in test [1] is 1 fold; in test [2], 1 fold; in test [3] it was 2 fold; in test [4], 1 fold.
